Positions count from the first letter of the chain named.
T1: HBV 11-12L.1090QE Linker1923(1/2) meganuclease (synthetic (I-CreI derived))
T1 sequence: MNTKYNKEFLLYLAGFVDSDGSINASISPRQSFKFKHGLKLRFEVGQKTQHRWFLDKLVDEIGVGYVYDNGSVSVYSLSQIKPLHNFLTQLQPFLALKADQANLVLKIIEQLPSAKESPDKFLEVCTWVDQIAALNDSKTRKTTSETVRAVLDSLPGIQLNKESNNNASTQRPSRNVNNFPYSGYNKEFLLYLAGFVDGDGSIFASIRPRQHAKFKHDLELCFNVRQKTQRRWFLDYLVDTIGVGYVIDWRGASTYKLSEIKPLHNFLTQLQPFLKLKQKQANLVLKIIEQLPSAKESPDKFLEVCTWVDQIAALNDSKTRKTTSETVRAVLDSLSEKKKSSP

T2: HBV 11-12L.1090QQ Linker1 meganuclease (synthetic (I-CreI derived, Chlamydomonas reinhardtii))
T2 sequence: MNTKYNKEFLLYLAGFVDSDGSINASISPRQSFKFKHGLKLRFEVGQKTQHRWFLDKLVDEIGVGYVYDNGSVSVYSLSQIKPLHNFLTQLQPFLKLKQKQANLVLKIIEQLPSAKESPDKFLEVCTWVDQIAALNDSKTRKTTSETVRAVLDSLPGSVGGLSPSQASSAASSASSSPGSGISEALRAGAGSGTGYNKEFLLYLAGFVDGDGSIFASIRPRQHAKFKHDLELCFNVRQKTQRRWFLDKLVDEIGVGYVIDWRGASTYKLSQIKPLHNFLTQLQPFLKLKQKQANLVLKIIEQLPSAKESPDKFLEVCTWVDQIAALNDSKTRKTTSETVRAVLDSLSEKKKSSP

T3: HBV 11-12L.1090QQ Linker1923(1/2) meganuclease (synthetic (I-CreI derived))
T3 sequence: T1 sequence with E260Q

T4: HBV 11-12L.1090QQ Linker1923(1/2) meganuclease (synthetic (I-CreI derived))
T4 chain: T1 sequence with E260Q

T5: HBV 11-12L.1090QE Linker1923(1/2) meganuclease (synthetic (I-CreI derived))
T5 chain: T1 sequence

B1: HBV 11-12 recognition sequence (dsDNA)
DNA 1: TGCCGATCCATACTGCGGAACT
DNA 2: AGTTCCGCAGTATGGATCGGCA

Key:
[1] = test system: T1, HBV 11-12L.1090QE Linker1923(1/2) meganuclease (synthetic (I-CreI derived)); assay: cell_activity; details: off-target, HepG2-sAg, 100 ng mRNA, below LOD; 0.2% in naive PHH at 500 ng
[2] = test system: T2, HBV 11-12L.1090QQ Linker1 meganuclease (synthetic (I-CreI derived, Chlamydomonas reinhardtii)); assay: cell_activity; details: off-target, HepG2-sAg, 100 ng mRNA; on-target about 60%
[3] = test system: T3, HBV 11-12L.1090QQ Linker1923(1/2) meganuclease (synthetic (I-CreI derived)); assay: cell_activity; details: off-target, HepG2-sAg, 100 ng mRNA; on-target about 60%
[4] = target: T4, HBV 11-12L.1090QQ Linker1923(1/2) …; assay: cell_activity; indel formation in HepG2-sAg, day 2; EC90 4.93 ng; details: tags: SV40 NLS (N- and C-terminal in pRNA8), mRNA-delivered
[5] = target: T5, HBV 11-12L.1090QE Linker1923(1/2) …; assay: cell_activity; indel formation in HepG2-sAg, day 2; EC90 23.93 ng; details: tags: SV40 NLS (N- and C-terminal in pRNA8), mRNA-delivered

Row | Molecule | activity [1] [% editing] | activity [2] [% editing] | activity [3] [% editing] | EC50 [4] [ng mRNA] | EC50 [5] [ng mRNA]
1 | top off-target site Chr17:17242769 | < 0.2 | 0.5 | 2 |  | 
2 | B1 |  |  |  | 0.26 | 2.3
